# Target: TOLLIP, recombinant from bacteria, biotinylated (human, UniProt Q9H0E2 1-274, biotin (biotinylated TOLLIP; site not told))
# Test: BLI
binder,measurement,value
"GST-BLK (B lymphoid tyrosine kinase), recombinant from bacteria (enzyme, autophosphorylated as purified (Fig. S5 C); sites not told for this sample) not shown",Kd,~8.39 nM
